B1: DASH complex subunit DAM1 (Saccharomyces cerevisiae), P53267 (parent)
chain: MSEDKAKLGTTRSATEYRLSIGSAPTSRRSSMGESSSLMKFADQEGLTSSVGEYNENTIQQLLLPKIRELSDSIITLDSNFTRLNFIHESLADLNESLGSLLYGIMSNSWCVEFSQAPHDIQDDLIAIKQLKSLEDEKNNLVMELSNMERGIKRKKDEQGENDLAKASQNKQFNQPLFPSSQVRKYRSYDNRDKRKPSKIGNNLQVENEEDYEDDTSSEASFVLNPTNIGMSKSSQGHVTKTTRLNNNTNSKLRRKSILHTIRNSIASGADLPIENDNVVNLGDLHPNNRISLGSGAARVVNGPVTKNRNSMFSGRAERKPTESRHSVAKKTEKKINTRPPFR

In the first test the parent is B1. The following applies: with nup82_yeast NUP82, P40368.
nup82_yeast NUP82, P40368, sequence (P40368 whole entry): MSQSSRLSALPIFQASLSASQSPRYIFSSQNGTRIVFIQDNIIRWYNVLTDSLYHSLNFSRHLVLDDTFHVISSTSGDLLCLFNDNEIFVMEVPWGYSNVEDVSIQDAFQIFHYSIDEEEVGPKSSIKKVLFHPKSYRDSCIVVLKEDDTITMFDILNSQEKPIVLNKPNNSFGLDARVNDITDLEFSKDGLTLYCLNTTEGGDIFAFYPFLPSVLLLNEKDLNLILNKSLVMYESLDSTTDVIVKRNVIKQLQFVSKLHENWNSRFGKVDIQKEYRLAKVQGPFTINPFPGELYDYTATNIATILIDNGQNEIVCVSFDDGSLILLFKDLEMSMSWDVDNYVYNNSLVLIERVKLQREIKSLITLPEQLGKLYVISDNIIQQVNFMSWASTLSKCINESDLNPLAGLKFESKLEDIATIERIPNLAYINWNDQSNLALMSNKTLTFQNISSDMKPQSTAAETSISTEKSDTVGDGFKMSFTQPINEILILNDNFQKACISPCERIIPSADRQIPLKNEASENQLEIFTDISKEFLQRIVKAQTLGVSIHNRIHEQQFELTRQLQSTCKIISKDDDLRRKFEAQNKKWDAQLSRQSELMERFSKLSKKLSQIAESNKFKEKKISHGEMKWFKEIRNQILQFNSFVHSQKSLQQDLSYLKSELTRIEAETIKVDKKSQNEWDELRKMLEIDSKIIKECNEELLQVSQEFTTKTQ
Turning to S20A;S257A;S265A;S292A, the “effect of a mutation on the interaction” value is listed as “causing an interaction”.

In a further test the parent is B1. The following applies: with bmh1_yeast BMH1, P29311.
bmh1_yeast BMH1, P29311, sequence (P29311 whole entry): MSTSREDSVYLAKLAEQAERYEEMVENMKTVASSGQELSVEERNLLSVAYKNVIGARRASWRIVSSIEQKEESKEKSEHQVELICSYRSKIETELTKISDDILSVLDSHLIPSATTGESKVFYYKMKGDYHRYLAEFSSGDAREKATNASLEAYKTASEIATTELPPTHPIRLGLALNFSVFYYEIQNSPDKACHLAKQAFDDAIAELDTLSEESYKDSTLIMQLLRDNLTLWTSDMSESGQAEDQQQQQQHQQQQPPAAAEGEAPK
For S20A;S257A;S265A;S292A, the “effect of a mutation on the interaction” value is on record as “causing an interaction”.

In a further test the parent is B1. Particulars: with med21_yeast SRB7, P47822.
med21_yeast SRB7, P47822, sequence (P47822 whole entry): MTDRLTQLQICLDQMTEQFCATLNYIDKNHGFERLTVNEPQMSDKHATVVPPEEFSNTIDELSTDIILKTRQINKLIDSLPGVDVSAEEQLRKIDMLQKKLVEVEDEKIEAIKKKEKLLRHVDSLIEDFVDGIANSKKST
Regarding S20D;S257D;S265D;S292D, the “effect of a mutation on the interaction” value is “causing an interaction”.

The values above are taken from IntAct's records for PubMed 12925767.
